Measurements reported in US20140234213A1 (FOX CHASE CANCER CENTER, published 2014).

Target: T1, human Mullerian inhibiting substance Type II receptor (MISIIR) (human, UniProt Q16671 18-573)
T1 construct: whole, on cells; also called MIS type II receptor; AMHR2
T1 sequence (looked up): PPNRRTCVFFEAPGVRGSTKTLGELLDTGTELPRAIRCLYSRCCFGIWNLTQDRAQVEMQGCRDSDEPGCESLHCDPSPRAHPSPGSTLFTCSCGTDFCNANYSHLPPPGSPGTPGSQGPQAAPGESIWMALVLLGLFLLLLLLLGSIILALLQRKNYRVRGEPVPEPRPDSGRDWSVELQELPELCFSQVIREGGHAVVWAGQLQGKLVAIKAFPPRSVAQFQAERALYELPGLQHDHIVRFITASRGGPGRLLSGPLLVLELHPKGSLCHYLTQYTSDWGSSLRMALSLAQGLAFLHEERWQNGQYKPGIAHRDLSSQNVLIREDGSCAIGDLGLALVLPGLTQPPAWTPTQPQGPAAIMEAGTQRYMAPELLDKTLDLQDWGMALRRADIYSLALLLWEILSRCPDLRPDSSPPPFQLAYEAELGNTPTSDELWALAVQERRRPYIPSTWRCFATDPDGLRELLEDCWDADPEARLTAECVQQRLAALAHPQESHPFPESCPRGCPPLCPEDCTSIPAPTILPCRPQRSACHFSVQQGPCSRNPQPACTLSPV
Assay: inferred by the filing from the reporter gene assay (block of MIS-induced signaling); no direct binding assay
Experimental: FIG. 3 provides a schematic of a reporter gene assay to measure MISIIR signaling. The Tlx-2 (T-cell leukemia, homeobox 2) gene is a downstream target of BMP and MIS signaling (Tang et al. (1998) Development 125:1877-1887). Genes encoding mouse TLX2-luciferase and human MISIIR were stably transfected into P19 mouse neuroblastoma cells that normally lack MISIIR.
The ability of the new hybrid scFv molecules to block MIS binding to MISIIR was determined using a reporter gene assay in which signaling through MISIIR on the surface of […] cells triggers luminescence in the cells (FIG. 3). MIS was added to the cells in the presence or absence of the different scFv molecules and the resulting luminescence was measured (FIG. 4).

B1: RAD-1-0003 (E3 1DQH3) scFv (scFv)
scFv: MAQVQLQQSGPGLVKPSQTLSLTCAISGDSVSSKSATWNWIRQSPSRGLEWLGRTYYRSKWYNDYAESVKSRITIKPDTTKNHFSLQLKSVTPEDTAVYYCASPPGGKLLISLSEERISAHHVPMDYWGQGTLVTVSSSASGAELGGGGSGGGGSGGGGSTSQAVLTQPSSASGTPGQRVTISCSGSSSNIGAGYDVHWYQQLPGTAPKLLIYGNSNRPSGVPDRFSGSKSGTSASLAITGLQAEDEADYYCQSYDSSLSAHNYVFGTGTKVTLLG
notes: Hybrid scFv on the E3 framework with the MIS loop in the heavy chain CDR3, in a different orientation than RAD-1-0001
B1: binds.
